Data from patent US20210292397A1 (LA TROBE UNIVERSITY, published 2021).

T1: Fibrinogen
T1 construct: also called human fibrinogen
T1 alpha: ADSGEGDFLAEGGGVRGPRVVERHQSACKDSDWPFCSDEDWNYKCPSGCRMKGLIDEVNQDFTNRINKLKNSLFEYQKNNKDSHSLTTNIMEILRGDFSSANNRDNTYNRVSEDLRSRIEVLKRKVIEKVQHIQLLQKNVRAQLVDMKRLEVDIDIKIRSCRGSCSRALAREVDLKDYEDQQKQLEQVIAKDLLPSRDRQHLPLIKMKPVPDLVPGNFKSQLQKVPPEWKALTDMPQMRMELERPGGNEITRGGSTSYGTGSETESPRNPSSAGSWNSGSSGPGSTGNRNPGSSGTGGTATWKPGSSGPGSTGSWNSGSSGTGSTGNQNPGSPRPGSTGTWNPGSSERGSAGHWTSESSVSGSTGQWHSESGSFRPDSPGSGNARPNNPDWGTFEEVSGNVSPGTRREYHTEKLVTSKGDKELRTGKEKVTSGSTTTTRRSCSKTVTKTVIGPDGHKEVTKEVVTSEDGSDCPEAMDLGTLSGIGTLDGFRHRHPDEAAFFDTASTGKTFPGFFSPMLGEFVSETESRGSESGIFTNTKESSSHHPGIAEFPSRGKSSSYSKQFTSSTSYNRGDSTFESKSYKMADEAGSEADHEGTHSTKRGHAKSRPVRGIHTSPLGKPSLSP
T1 beta: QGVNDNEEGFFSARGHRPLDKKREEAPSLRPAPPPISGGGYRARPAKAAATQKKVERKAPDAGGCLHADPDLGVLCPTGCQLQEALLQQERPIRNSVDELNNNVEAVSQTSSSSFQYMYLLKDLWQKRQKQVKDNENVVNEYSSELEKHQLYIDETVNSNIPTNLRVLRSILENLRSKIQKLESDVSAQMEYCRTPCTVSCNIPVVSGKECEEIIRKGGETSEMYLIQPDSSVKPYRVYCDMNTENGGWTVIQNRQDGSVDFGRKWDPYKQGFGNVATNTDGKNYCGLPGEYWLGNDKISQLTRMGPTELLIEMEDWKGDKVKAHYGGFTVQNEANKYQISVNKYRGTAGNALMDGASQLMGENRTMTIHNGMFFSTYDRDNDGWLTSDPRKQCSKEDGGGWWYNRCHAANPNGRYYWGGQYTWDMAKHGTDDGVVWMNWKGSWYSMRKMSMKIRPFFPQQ
T1 gamma: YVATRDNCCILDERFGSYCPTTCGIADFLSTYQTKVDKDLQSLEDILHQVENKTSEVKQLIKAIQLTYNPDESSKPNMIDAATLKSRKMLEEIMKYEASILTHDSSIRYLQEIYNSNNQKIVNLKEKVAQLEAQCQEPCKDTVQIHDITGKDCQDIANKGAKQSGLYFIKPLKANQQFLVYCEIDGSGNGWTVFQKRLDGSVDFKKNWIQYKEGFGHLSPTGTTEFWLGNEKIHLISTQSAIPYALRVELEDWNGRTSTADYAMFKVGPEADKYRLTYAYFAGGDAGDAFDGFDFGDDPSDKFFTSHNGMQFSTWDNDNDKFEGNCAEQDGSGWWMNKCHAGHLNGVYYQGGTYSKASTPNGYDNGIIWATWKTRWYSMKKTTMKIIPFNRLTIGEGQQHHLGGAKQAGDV

B1: Ag43a passenger domain (Ag43a^α) from UPEC strain CFT073 (other)
chain: ADIVVHPGETVNGGTLVNHDNQFVSGTANGVTVSTGLELGPDSDENTGGQWIKAGGTGRNTTVTANGRQIVQAGGTASDTVIRDGGGQSLNGLAVNTTLDNRGEQWVHGGGKAAGTIINQDGYQTIKHGGLATGTIVNTGAEGGPESENVSSGQMVGGTAESTTINKNGRQVIWSSGMARDTLIYAGGDQTVHGEAHNTRLEGGNQYVHNGGTATETLINRDGWQVIKEGGTAAHTTINQKGKLQVNAGGKASDVTQNTGGALVTSTAATVTGTNRLGAFSVVAGKADNVVLENGGRLDVLSGHTATNTRVDDGGTLDIRNGGAATTVSMGNGGVLLADSGAAVSGTRSDGKAFSIGGGQADALMLEKGSSFTLNAGDTATDTTVNGGLFTARGGTLAGTTTLNNGAILTLSGKTVNNDTLTIREGDALLQGGSLTGNGSVEKSGSGTLTVSNTTLTQKAVNLNEGTLTLNDSTVTTDVIAQRGTALKLTGSTVLNGAID
notes: also called Ag43^α; α^43a
B2: UpaB α-domain (α^UpaB) from UPEC strain CFT073 (other)
chain: TDSTVSTDPVTLNTEKTTLDQDVVINGDNKITAVTIETSDSDKDLNVTFGGHDITAASTVNQDFVEGVKVSGNKNVVINATDSTITAQGEGTYVRTAMVIDSTGDVVVNGGNFVAKNEKGSATGISLEATTGNNLTLNGTTINAQGNKSYSNGSTAIFAQKGNLLQGFDGDATDNITLADSNIINGGIETIVTAGNKTGIHTVNLNIKDGSVIGAANNKQTIYASASAQGAGSATQNLNLSVADSTIYSDVLALSESENSASTTTNVNMNVARSYWEGNAYTFNSGDKAGSDLDINLSDSSVWKGKVSGAGDASVSLQNGSVWNVTGSSTVDALAVKDSTVNITKATVNTGTFASQNGTLIVDASSENTLDISGKASGDLRVYSAGSLDLINEQTAFISTGKDSTLKATGTTEGGLYQYDLTQGADGNFYFVKNTHKASNASSVIQAMAAAPANVANLQADTL
notes: also called α^UPaB (native)
B3: Ag43 passenger domain (Ag43^α) from UPEC strain UTI189 (other)
chain: ADTVVQAGETVNGGTLTNHDNQIVLGTANGMTISTGLEYGPDNEANTGGQWIQNGGIANNTTVTGGGLQRVNAGGSVSDTVISAGGGQSLQGQAVNTTLNGGEQWVHEGGIATGTVINEKGWQAVKSGAMATDTVVNTGAEGGPDAENGDTGQTVYGDAVRTTINKNGRQIVAAEGTANTTVVYAGGDQTVHGHALDTTLNGGYQYVHNGGTASDTVVNSDGWQIIKEGGLADFTTVNQKGKLQVNAGGTATNVTLTQGGALVTSTAATVTGSNRLGNFTVENGNADGVVLESGGRLDVLEGHSAWKTLVDDGGTLAVSAGGKATDVTMTSGGALIADSGATVEGTNASGKFSIDGISGQASGLLLENGGSFTVNAGGLASNTTVGHRGTLTLAAGGSLSGRTQLSKGASMVLNGDVVSTGDIVNAGEIRFDNQTTPDAALSRAVAKGDSPVTFHKLTTSNLTGQGGTINMRVRLDGSNASDQLVINGGQATGKTWLAFTNVGNSNLGVATSGQGIRVVDAQNGATTEEGAFALSRPLQAGAFNYTLNRDSDE
B4: Ag43 passenger domain (Ag43^α) from E. coli strain EDL933 (other)
chain: ADKVVQAGETVNDGTLTNHDNQIVFGTANGMTISTGLELGPDSEENTGGQWIQNGGIAGNTTVTTNGRQVVLEGGTASDTVIRDGGGQSLNGLAVNTTLNNRGEQWVHEGGVATGTIINRDGYQSVKSGGLATGTIINTGAEGGPDSDNSYTGQKVQGTAESTTINKNGRQIILFSGLARDTLIYAGGDQSVHGRALNTTLNGGYQYVHRDGLALNTVINEGGWQVVKAGGAAGNTTINQNGELRVHAGGEATAVTQNTGGALVTSTAATVIGTNRLGNFTVENGKADGVVLESGGRLDVLESHSAQNTLVDDGGTLAVSAGGKATSVTITSGGALIADSGATVEGTNASGKFSIDGTSGQASGLLLENGGSFTVNAGGQAGNTTVGHRGTLTLAAGGSLSGRTQLSKGASMVLNGDVVSTGDIVNAGEIRFDNQTTPNAALSRAVAKSNSPVTFHKLTTTNLTGQGGTINMRVRLDGSNASDQLVINGGQATGKTWLAFTNVGNSNLGVATTGQGIRVVDAQNGATTEEGAFALSRPLQAGAFNYTLNRDSDE
B5: TibA passenger domain (TibA^α) from the enterotoxigenic E. coli strain H10407 (other)
chain: YDNQTIGRGETSKSMHLSAGDTAKNTTINSGGKQYVSSGGSATSTTINIGGVQHVSSGGSATSSTINSGGHQHVSSGGSATNTTVNNGGRQTVFSGGSAMGTIINSGGDQYVISGGSATSASVTSGARQFVSSGGIVKATSVNSGGRQYVRDGGSATDTVLNNTGRQFVSSGGSAAKTTINSGGGMYLYGGSATGTSIYNGGRQYVSSGGSATNTTVYSGGRQHVYIDGNVTETTITSGGMLQVEAGGSASKVIQNSGGAVITNTSAAVSGTNDNGSFSIAGGSAVNMLLENGGYLTVFDGHQASDTMVGSDGTLDVRSGGVLYGTTTLTDKGALVGDVVTNEGNLYYLNNSTATFTGTLTGTGTLTQEGGNTRFSGLLSQDGGIFLQSGGAMTMDALQAKANVTTQSGTTLTLDNGTILTGNVAGDSTGAGDMAVKGASVWHLDGDSTVGALTLDNGTVDFRPSTTTRMTPAFQAVSLALGSLSGSGTFQMNTDIASHTGDMLNVAGNASGNFVLDIKNTGLEPVSAGAPLQVVQTGGGDAAFTLKGGKVDAGTWEYGLSKENTNWYLKADT
B6: Ag43b passenger domain (Ag43b^α) from uropathogenic E. coli strain CFT073 (other)
chain: ADSVVPAGETVNGGTLINHDRQFVSGTADGMTVSTGLELGADSDNNTGGQQIARGGTARNTRVTANGLQDVMAGGSTSDTVISTGGGQNLRGKASGTVLNGGDQWIHAGGRASGTVINQDGYQTIKHGGLVTGTIVNTGAEGGPDSENVSTGQMVGGIAESTTINKNGRQVIWSSGIARDTLIYTGGDQTVHGEAHNTRLEGGNQYVHKYGLALNTVINEGGWQVVKAGGTAGNTTINQNGELRVHAGGEASDVTQNTGGALVTSTAATVTGTNRLGAFSVVEGKADNVVLENGGRLDVLSGHTATRTLVDDGGTLDVRNGGTATAVSMGNGGVLLADSGAAVSGTRSDGTAFRIGGGQADALMLEKGSSFTLNAGDTATDTTVNGGLFTARGGSLAGTTTLNNGATFTLAGKTVNNDTLTIREGDALLQGGALTGNGRVEKSGSGTLTVSNTTLTQKAVNLNEGTLTLNDSTVTTDIIAHRGTALKLTGSTVLNGAIDPTNVTLTSGATWNIPDNATVQSVVDDLSHAGQIHFTSARTGKFVPTTLQVKNLNGQNGTISLRVRPDMAQNNADRLVIDGGRATGKTILNLVNAGNSGTGLATTGKGIQVVEAINGATTEEGAFVQGNMLQAGAFNYTLNRDSDESWYLRSEE
notes: also called Ag43bCFT073^α
B7: Fab10C12 (Fab, V domains shown)
VH: QVQLQQPGTELVKPGASVKLSCKASGYTFTNYWMHWVKQRPGQGLEWIGNIGPSSGNTNYNENFKTKATLTVDKSSSTAYMQLSSLTSEDSAVYFCARWGSIRAMDYWGQGTSVTVSS
VL: SIVMTQTPKFLFVSVGDRVTITCKASQSVNNDVAWYQQKPGQSPKLLIYFASNRYTGVPDRFTGSGYGTDFTFTINTVQAEDLAVYFCQQDYSSPQTFGGGTKLEVTR

Assays:
[1] = biological target: the molecule itself; assay: crystal structure (FIG. 1B)
Fibrinogen = biological target: T1, Fibrinogen; assay: ELISA, absorbance at 405 nm, n=9, PBS as control
human fibronectin = human fibronectin (human, UniProt P02751 32-2477)
[2] = biological target: the molecule itself; assay: crystal structure (FIG. 12B)
[3] = biological target: the molecule itself; assay: crystal structure (FIG. 12A)
[4] = biological target: the molecule itself; assay: crystal structure (FIG. 12D)
[5] = biological target: the molecule itself; assay: crystal structure (FIG. 12C)
[6] = biological target: B1

human fibronectin, sequence (P02751 32-2477 limits assumed): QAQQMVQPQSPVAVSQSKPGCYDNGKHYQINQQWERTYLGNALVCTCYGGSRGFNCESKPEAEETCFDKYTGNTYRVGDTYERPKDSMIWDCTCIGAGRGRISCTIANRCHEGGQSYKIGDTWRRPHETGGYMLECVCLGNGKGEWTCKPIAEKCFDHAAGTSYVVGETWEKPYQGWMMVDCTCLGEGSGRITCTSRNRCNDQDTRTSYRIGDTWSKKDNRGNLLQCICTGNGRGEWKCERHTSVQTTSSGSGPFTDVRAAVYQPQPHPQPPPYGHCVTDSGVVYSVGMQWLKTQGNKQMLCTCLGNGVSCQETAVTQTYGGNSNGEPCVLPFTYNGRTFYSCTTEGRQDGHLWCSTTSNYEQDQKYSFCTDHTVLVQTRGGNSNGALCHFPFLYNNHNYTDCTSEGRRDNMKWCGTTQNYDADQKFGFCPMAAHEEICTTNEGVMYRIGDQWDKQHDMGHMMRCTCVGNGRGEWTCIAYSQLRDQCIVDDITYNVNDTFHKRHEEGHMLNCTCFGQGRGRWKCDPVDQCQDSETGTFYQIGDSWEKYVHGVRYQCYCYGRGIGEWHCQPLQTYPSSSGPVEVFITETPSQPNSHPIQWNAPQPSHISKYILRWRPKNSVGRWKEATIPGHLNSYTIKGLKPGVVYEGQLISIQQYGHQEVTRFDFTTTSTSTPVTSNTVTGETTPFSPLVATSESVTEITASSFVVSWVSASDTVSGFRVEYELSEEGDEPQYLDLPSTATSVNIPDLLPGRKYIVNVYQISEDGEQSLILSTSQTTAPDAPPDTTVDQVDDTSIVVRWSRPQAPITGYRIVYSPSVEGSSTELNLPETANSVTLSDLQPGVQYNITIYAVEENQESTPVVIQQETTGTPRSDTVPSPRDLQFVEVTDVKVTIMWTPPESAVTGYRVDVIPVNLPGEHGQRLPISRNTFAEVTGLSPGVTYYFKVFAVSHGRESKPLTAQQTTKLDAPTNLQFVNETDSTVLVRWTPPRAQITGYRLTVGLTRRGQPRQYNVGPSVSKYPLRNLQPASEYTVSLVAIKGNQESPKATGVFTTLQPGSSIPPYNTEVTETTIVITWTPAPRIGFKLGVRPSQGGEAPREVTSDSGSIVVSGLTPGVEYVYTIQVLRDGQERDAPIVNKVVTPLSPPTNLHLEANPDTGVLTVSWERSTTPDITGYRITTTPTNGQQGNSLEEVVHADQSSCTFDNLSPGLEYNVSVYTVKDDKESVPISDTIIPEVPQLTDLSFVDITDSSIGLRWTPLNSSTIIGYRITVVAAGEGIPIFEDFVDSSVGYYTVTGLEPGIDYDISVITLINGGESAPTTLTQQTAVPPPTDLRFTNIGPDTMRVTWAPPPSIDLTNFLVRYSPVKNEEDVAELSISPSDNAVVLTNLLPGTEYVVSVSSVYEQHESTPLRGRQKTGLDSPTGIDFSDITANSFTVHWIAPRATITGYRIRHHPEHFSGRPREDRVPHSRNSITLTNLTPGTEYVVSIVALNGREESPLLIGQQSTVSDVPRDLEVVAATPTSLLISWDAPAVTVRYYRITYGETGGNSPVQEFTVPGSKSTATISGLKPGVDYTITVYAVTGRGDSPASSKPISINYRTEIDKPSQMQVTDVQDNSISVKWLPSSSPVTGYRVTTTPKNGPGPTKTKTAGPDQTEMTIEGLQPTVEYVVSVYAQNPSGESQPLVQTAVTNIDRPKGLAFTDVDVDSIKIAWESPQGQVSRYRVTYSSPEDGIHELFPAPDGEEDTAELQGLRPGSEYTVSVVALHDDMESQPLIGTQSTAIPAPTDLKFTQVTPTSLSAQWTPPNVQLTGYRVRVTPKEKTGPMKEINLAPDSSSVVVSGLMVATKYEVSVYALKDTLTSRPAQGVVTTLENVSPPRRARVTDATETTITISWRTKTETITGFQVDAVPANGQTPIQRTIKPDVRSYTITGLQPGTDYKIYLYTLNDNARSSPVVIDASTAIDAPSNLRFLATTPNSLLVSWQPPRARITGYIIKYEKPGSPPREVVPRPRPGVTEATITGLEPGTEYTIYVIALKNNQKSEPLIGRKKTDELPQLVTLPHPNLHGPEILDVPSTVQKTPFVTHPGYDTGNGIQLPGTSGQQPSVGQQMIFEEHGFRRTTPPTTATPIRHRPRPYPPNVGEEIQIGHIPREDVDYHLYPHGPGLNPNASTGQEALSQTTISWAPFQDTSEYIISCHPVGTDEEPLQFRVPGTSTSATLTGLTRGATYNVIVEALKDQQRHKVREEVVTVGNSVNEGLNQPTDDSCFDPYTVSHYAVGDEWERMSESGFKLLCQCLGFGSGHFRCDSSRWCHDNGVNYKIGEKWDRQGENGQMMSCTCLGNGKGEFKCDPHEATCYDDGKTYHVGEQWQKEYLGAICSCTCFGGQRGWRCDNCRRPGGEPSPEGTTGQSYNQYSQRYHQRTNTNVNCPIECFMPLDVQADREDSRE

B1: binds [1].

With B2 the binding result (Fibrinogen) was “no binding” and the Kd (human fibronectin) was 45.2 µM.

B3: binds [2].

B4: binds [3].

B5: binds [4].

B6: binds [5].

Binder B7 has a Kd [6] of 0.00728 µM.
